# Patent US11357847B2, “Modified HSV gD protein and vaccine containing same” (KM Biologics Co., Ltd., priority 2017, dated 2022)
# B1: gD1-315v5: gD1-315 with glycochains at R186 (SC-A) and P50 (SC-F) (protein)
# chain: KYALADPSLKMADPNRFRGKNLPVLDQLTDPPGVKRVYHIQPSLEDPFQNASIPITVYYAVLERACRSVLLHAPSEAPQIVRGASDEARKHTYNLTIAWYRMGDNCAIPITVMEYTECPYNKSLGVCPIRTQPRWSYYDSFSAVSEDNLGFLMHAPAFETAGTYLRLVKINDWTEITQFILEHRANASCKYALPLRIPPAACLTSKAYQQGVTVDSIGMLPRFIPENQRTVALYSLKIAGWHGPKPPYTSTLLPPELSDTTNATQPELVPEDPEDSALLEDPAGTVSSQIPPNWHIPSIQDVAPHHAPAAPSNPGHHHHHH
# B2: gD1-275v5-55: gD1-275 with glycochains at SC-A, SC-F, linked to T cell epitope peptide DP5 (protein)
# chain: KYALADPSLKMADPNRFRGKNLPVLDQLTDPPGVKRVYHIQPSLEDPFQNASIPITVYYAVLERACRSVLLHAPSEAPQIVRGASDEARKHTYNLTIAWYRMGDNCAIPITVMEYTECPYNKSLGVCPIRTQPRWSYYDSFSAVSEDNLGFLMHAPAFETAGTYLRLVKINDWTEITQFILEHRANASCKYALPLRIPPAACLTSKAYQQGVTVDSIGMLPRFIPENQRTVALYSLKIAGWHGPKPPYTSTLLPPELSDTTNATQPELVPEDPEDGPGPGIAFWVRRRAQMAPKPLRIAFWVRRRAQMAPKPLRHHHHHH
# modifications: left off: small tags and cut ends
# How the values were obtained:
# HSV-2 MS strain = assay: Mouse infection-prevention test of modified gD (genital herpes infection model); assay type: in vivo, BALB/c mice; design: key to Determination (vs gD1-315) / Determination# (vs gD1-315): ++: minimum effective dose based on the Significant difference test in three-fold common ratio relative to gD1-315(WT) of two or more doses stronger; +: those of one dose stronger; ±: those of an equivalent value
# Method: Immunogenicity test of the modified gD antigen was performed using the wild-type gD antigen gD1-315 (WT) as a positive control and saline as a negative control. A predetermined amount of antigen was dissolved in saline for injection (saline) with MPLA (10 μg/mouse) and CpG (1 μg/mouse) and immunized to mice at a volume of 200 μL/mouse. BALB/c mice (5 weeks old, female) were used for the study and immunized subcutaneously in back at 2-week intervals for a total of 3 times (N=4 cases per group). Two weeks after the final immunization (third dose), blood was collected and serum was prepared for each individual. The prepared serum was serially diluted and assessed for neutralizing antibody-inducing activity against HSV-2 (50% plaque number-reducing activity).
# An infection-prevention test in the preventive administration of modified gD antigen was performed using a mouse genital herpes infection model. Similar to the mouse immunogenicity test described above, mice were immunized with the number of N=10 cases per group. Depo-Provera was inoculated subcutaneously at 2 mg/mouse 6 days prior to viral inoculation to improve the multiplicity of infection upon viral inoculation 2 weeks after final immunization (third dose). 5×10^5 PFU/20 μL HSV-2 MS strain was inoculated transvaginally under anesthesia and observed for 21 days. Infection prevention ability was evaluated using survival time (survival rate) as index.
# The infection model of the mouse genital herpes infection model was used to evaluate infection prevention ability of various modified gD in preventive administration. The number of animal cases in each group was set to n=10, and wild-type gD (gD1-315) was used as a positive control and saline was used as a negative control. The experiments were performed a total of four times (experiments 1-4) and four doses of 0.1 μg/mouse/time, 0.03 μg/mouse/time, 0.01 μg/mouse/time and 0.003 μg/mouse/time were set for all of the positive control, negative control, and subject modified gD antigen. Depo-Provera was inoculated subcutaneously at 2 mg/mouse 6 days prior to viral inoculation to improve the multiplicity of infection upon viral inoculation 2 weeks after final immunization (third dose). 5×10^5 PFU/20 HSV-2 MS strain was inoculated transvaginally under anesthesia and observed for 21 days. Infection prevention ability was evaluated using survival time (survival rate) as index. Mean values of those were plotted in the graph. A Significant difference test for the negative control group was performed by the Kaplan-Meier method, and those with a minimum effective dose based on the Significant difference test in three-fold common ratio relative to wild type gD of two or more doses stronger were determined to be “++”, those of one dose stronger were determined to be “+”, and those of an equivalent value were determined to be “±”.
# HVEM = molecular target: T1, HVEM (Homo sapiens, UniProt Q92956); assay: Reactivity of HVEM with gD variants (competitive ELISA); assay type: binding; details: compared to the original gD1-315; FIG. 14
# T1 sequence (Q92956 39-202): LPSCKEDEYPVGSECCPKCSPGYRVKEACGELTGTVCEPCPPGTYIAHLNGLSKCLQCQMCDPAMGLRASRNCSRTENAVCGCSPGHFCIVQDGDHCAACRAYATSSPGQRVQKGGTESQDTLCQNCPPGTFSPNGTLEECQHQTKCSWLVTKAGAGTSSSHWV
# Method: From the above discussion, it can be strongly inferred that each variant takes the structure in which FR1 is bound to the receptor binding region. The reactivity of HVEM with each variant was then measured by competitive ELISA.
# HVEM can bind gD for the first time when FR1 binds to the receptor binding region and takes a characteristic hairpin structure. […] FR3-deficient gD1-275v5-55 promoted FR1 binding and further HVEM binding over other gD1-315-based variants in which FR3 was present.
# [1] = tested on: various anti-gD2 antibodies; assay: Reactivity of gD variants with anti-gD2 antibodies (competitive ELISA); assay type: binding, human; details: for Reactivity with anti-gD2 antibody 1 / Reactivity with anti-gD2 antibody 5 / Reactivity with anti-gD2 antibody 13 / Reactivity with anti-gD2 antibody 72 / Reactivity with anti-gD2 antibody 75 / Reactivity with anti-gD2 antibody 78 / Reactivity with anti-gD2 antibody 82: immobilized gD variant
# Excerpt: Each anti-gD2 monoclonal antibody and each gD variant were expressed using an Expi293 expression system.
# [2] = Properties of produced gD variants (aggregates); assay type: physicochemical; details: expressed and purified variant
# Excerpt: Four gD1-275-based variants were produced. Since these were FR3-deficient variants, V231W mutations affecting FR3 were not investigated. […] Meanwhile, eight gD1-315-based variants were produced, and none of the variants were less than the original gD1-315 in both properties and expression level.
# [3] = Experiment 1, 0.003 μg/head/time
# [4] = Experiment 1, 0.01 μg/head/time
# [5] = Experiment 1, 0.03 μg/head/time
# [6] = Experiment 2, 0.003 μg/head/time
# [7] = Experiment 2, 0.01 μg/head/time
# [8] = Experiment 2, 0.03 μg/head/time
# [9] = Experiment 3, 0.003 μg/head/time
# [10] = Experiment 3, 0.01 μg/head/time
# [11] = Experiment 3, 0.03 μg/head/time
# [12] = Experiment 4, 0.003 μg/head/time
# [13] = Experiment 4, 0.01 μg/head/time
# [14] = Experiment 4, 0.03 μg/head/time
# [15] = Experiment 1, minimum effective dose relative to gD1-315(WT)
Molecule,Mean survival time (HSV-2 MS strain; [3]),Significant difference test (vs saline) (HSV-2 MS strain; [3]),Mean survival time (HSV-2 MS strain; [4]),Significant difference test (vs saline) (HSV-2 MS strain; [4]),Mean survival time (HSV-2 MS strain; [5]),Significant difference test (vs saline) (HSV-2 MS strain; [5]),"Mean survival time (HSV-2 MS strain; Experiment 1, 0.1 μg/head/time)","Significant difference test (vs saline) (HSV-2 MS strain; Experiment 1, 0.1 μg/head/time)",Mean survival time (HSV-2 MS strain; [12]),Significant difference test (vs saline) (HSV-2 MS strain; [12]),Mean survival time (HSV-2 MS strain; [13]),Significant difference test (vs saline) (HSV-2 MS strain; [13]),Mean survival time (HSV-2 MS strain; [14]),Reactivity with anti-gD2 antibody 1 [1],Reactivity with anti-gD2 antibody 5 [1],Reactivity with anti-gD2 antibody 13 [1],Reactivity with anti-gD2 antibody 72 [1],Reactivity with anti-gD2 antibody 75 [1],Reactivity with anti-gD2 antibody 78 [1],Reactivity with anti-gD2 antibody 82 [1],also measured
"gD1-315: wild-type soluble gD ectodomain 1-315 of HSV-2 333 strain, SEQ ID NO: 1; positive control [reference compound]",6.5 days,N.S.,7 days,N.S.,>21 days,*** (*** p < 0.001),>21 days,*** (*** p < 0.001),8 days,N.S.,7.5 days,N.S.,>16.5 days,+ ((+): 70% or more),+ ((+): 70% or more),+ ((+): 70% or more),+ ((+): 70% or more),+ ((+): 70% or more),+ ((+): 70% or more),+ ((+): 70% or more),"Mean survival time (HSV-2 MS strain; [6]): 7.5 days; Significant difference test (vs saline) (HSV-2 MS strain; [6]): N.S.; Mean survival time (HSV-2 MS strain; [7]): 7.5 days; Significant difference test (vs saline) (HSV-2 MS strain; [7]): N.S.; Mean survival time (HSV-2 MS strain; [8]): >14.5 days; Significant difference test (vs saline) (HSV-2 MS strain; [8]): N.S.; Mean survival time (HSV-2 MS strain; Experiment 2, 0.1 μg/head/time): >22 days; Significant difference test (vs saline) (HSV-2 MS strain; Experiment 2, 0.1 μg/head/time): *** (*** p < 0.001); Mean survival time (HSV-2 MS strain; [9]): 6 days; Significant difference test (vs saline) (HSV-2 MS strain; [9]): N.S.; Mean survival time (HSV-2 MS strain; [10]): 8 days; Significant difference test (vs saline) (HSV-2 MS strain; [10]): * (* 0.01 = < p < 0.05); Mean survival time (HSV-2 MS strain; [11]): >21 days; Significant difference test (vs saline) (HSV-2 MS strain; [11]): *** (*** p < 0.001); Mean survival time (HSV-2 MS strain; Experiment 3, 0.1 μg/head/time): >21 days; Significant difference test (vs saline) (HSV-2 MS strain; Experiment 3, 0.1 μg/head/time): *** (*** p < 0.001); Significant difference test (vs saline) (HSV-2 MS strain; [14]): N.S.; Mean survival time (HSV-2 MS strain; Experiment 4, 0.1 μg/head/time): >21 days; Significant difference test (vs saline) (HSV-2 MS strain; Experiment 4, 0.1 μg/head/time): *** (*** p < 0.001); Reactivity with HVEM (HVEM): little reaction"
B1,6.5 days,N.S.,>21 days,*** (*** p < 0.001),>21 days,*** (*** p < 0.001),>21 days,*** (*** p < 0.001),–,–,–,–,–,+ ((+): 70% or more),− ((−): less than 30%),+ ((+): 70% or more),± ((±): 30% or more and less than 70%),− ((−): less than 30%),− ((−): less than 30%),+ ((+): 70% or more),Determination (vs gD1-315) (HSV-2 MS strain; [15]): +; Reactivity with HVEM (HVEM): little reaction; Relative reactivity with antibody No. 82 (gD1-315 wild-type set to 1) ([1]; FIG. 13): substantially similar reactivity
B2,13 days,*** (*** p < 0.001),11 days,*** (*** p < 0.001),>21 days,*** (*** p < 0.001),>21 days,*** (*** p < 0.001),8 days,N.S.,15.5 days,N.S.,>21 days,− ((−): less than 30%),− ((−): less than 30%),− ((−): less than 30%),− ((−): less than 30%),− ((−): less than 30%),− ((−): less than 30%),+ ((+): 70% or more),"Determination (vs gD1-315) (HSV-2 MS strain; [15]): ++; Significant difference test (vs saline) (HSV-2 MS strain; [14]): ** (** 0.001 = < p < 0.01); Mean survival time (HSV-2 MS strain; Experiment 4, 0.1 μg/head/time): >21 days; Significant difference test (vs saline) (HSV-2 MS strain; Experiment 4, 0.1 μg/head/time): *** (*** p < 0.001); Determination# (vs gD1-315) (HSV-2 MS strain; Experiment 4, minimum effective dose relative to gD1-315(WT)): +; Properties of the variant (aggregates) [2]: well properties"
